Assay [1] addresses LRP1 CR3-5 (Homo sapiens, UniProt Q07954). In words: Binding of RAP d3 / MegaRAP1 d3 variants to LRP1 CR3-5. The note with it: in words. An excerpt:
FIG. 1A-B depict binding of RAP d3, MegaRAP1 d3 (RAPv2A d3) and intermediate sequence variants to LRP2 CR89 and LRP1 CR3-5. FIG. 1A illustrates binding of RAP d3 mutants and RAPv2A d3 revertants to LRP2 CR89. FIG. 1B illustrates binding of RAP d3 mutants and RAPv2A d3 revertants to LRP1 CR3-5. Data were plotted and fitted by non-linear regression with the assumption of a single binding site (GraphPad Prism). Kd values with standard deviations were derived from the regression analysis.
Percent of maximum binding is the ratio of the OD at the highest concentration tested for each ligand and the highest OD measured for all such ligands at that concentration.

Assay [2] concerns the target CR pairs of the second ligand-binding domain of human LRP1. The note with it: all pairs except CR9-CR10; read-out: affinity of adjacent CR pairs for RAP d3; cited from earlier work.

LRP1 CR3-5, sequence (Q07954 852-973 limits assumed): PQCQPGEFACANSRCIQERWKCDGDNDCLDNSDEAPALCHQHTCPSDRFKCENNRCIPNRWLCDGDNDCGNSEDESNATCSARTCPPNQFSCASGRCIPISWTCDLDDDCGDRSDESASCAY

B1: MegaRAP1: RAPd3 variant; Table 2 positions 213 T, 217 K, 249 Y, 251 K, 256 A, 270 E (protein)
chain: GLDRLRRVSHQGYTTEAKFEEPRVIDLWDLAQSANLTDKELEAFREELKYFKAKIEAHNHYQKQLEIAHEELRHAESVGDGERVSRSREKHALLEGRTKELGYTVKKHLQDLSGRISRARHNEL
B1: in assay [1], the “binding to LRP1 CR domains” value was “fails to bind LRP1 CR domains”.

B2: RAP d3: third domain (d3) of receptor-associated protein, amino acids 200-323 of mature RAP; row 'RAP' of Table 2 (protein, listed as Homo sapiens)
chain: LDRLRRVSHQGYSTEAEFEEPRVIDLWDLAQSANLTDKELEAFREELKHFEAKIEKHNHYQKQLEIAHEKLRHAESVGDGERVSRSREKHALLEGRTKELGYTVKKHLQDLSGRISRARHNEL
Take B2: the Kd in assay [2] is 1 to 5 nM.
